Results as given in article PMC2861713.

Tests used:
[1] = molecular target: (His)10-p34ΔN/ΔC (p34 residues 37–292 linked to a 10 histidine tag) (Helicobacter pylori); experiment: SEC; in the presence of 4 M urea; Superose 6 10/300 GL for (His)10-p34, Superose 12 10/300 GL (1.0 ml/min) for (His)10-p34ΔN/ΔC; mass against marker proteins
[2] = molecular target: (His)10-p34(37–319) (Helicobacter pylori); experiment: SEC; Superose 6 10/300 GL, 0.5 ml/min, in the presence of 10% glycerol; mass from the Kav of the most prominent peak against marker proteins
[3] = molecular target: (His)10-p34(37–319) (Helicobacter pylori); experiment: SEC; in the presence of 4 M urea; Superose 6 10/300 GL for (His)10-p34, Superose 12 10/300 GL (1.0 ml/min) for (His)10-p34ΔN/ΔC; mass against marker proteins
[4] = molecular target: (His)10-p34(37–319) (Helicobacter pylori); experiment: SEC; Superose 6 10/300 GL, in the presence of 2 M urea

Work on “(His)10-p34ΔN/ΔC (p34 residues 37–292 linked to a 10 histidine tag) (domain or fragment)” yielded a stoichiometry N [1] of 6 subunits.
In the case of “(His)10-p34(37–319) (domain or fragment)”, the stoichiometry N [2] is reported as 6 subunits, the stoichiometry N [3] is reported as 6 subunits and the stoichiometry N [4] is reported as 6 subunits.
